Results: publication PMC8715119, “Second-generation non-hematopoietic erythropoietin-derived peptide for neuroprotection” (Redox Biology, 2021)

What was measured:
[1] = tested on: AKT; assay: Time-series immunoblot of phosphorylated AKT; format: cell-based, rat; details: PC12 cells; 1 nM; deficient level by 30 min, maintained at 90 min; n = 3
Description: (§1) PC12 or HT-22 cells were lysed in 100 mM Tris-Cl (pH 6.8) with 4% SDS. The lysates were loaded onto sodium dodecyl sulfate-polyacrylamide gel electrophoresis (SDS-PAGE) (8–10%), and the proteins were transferred onto the nitrocellulose membrane. The membrane was blocked with 0.1% TBST and 5% non-fat dry milk at 25°C for 30 min. Primary antibodies were diluted in 0.1% TBST and 3% bovine serum albumin (BSA). The primary antibodies included anti-pJAK2 (#3776, Cell Signaling Technology, USA), anti-JAK2 (#3230, Cell Signaling Technology, USA), anti-pSTAT5 (#9351, Cell Signaling Technology, USA), anti-STAT5 ([…], Cell Signaling Technology, USA), anti-pAKT (#9271, Cell Signaling Technology, USA), anti-AKT (#9272, Cell Signaling Technology, USA), anti-pERK (#9101, Cell Signaling Technology, USA) anti-ERK (#9102, Cell Signaling Technology, USA), anti-EPOR (#sc-365662, Santa Cruz Biotechnology, USA), anti-β-Actin (Santa Cruz Biotechnology, USA), anti-Bax (Santa Cruz Biotechnology, USA), anti-cleaved Casp3 (Cell Signaling Technology, USA), and anti-cleaved Parp1 (Cell Signaling Technology, USA).

[2] = tested on: HT-22 cells; assay: Cell viability after hypoxia and re-oxygenation; format: cell-based, mouse; details: hypoxia 18 h, re-oxygenation 3 h, treatment 19 h; reEPO 0.5 IU/ml, ML1-h3 1 ng/ml; n = 12
Description: HT-22 cells (kindly provided by Prof. Gil-Saeng Jeong in Keimyung University), an immortalized mouse hippocampal cell line, were cultured at 37°C and 5% CO2 in Dulbecco's modified eagle medium (DMEM, Invitrogen, USA) supplemented with 10% FBS and 1% penicillin/streptomycin at 37°C and 5% CO2.
Cell viability was evaluated by 3-[(4,5-dimethylthiazol-2-yl)-5,3-carboxymethoxyphenyl]-2-(4-sulfophenyl)-2H tetrazolium, inner salt (MTS) reduction assay (CellTiter 96 Aqueous One Solution Cell Proliferation Assay, Promega, Madison, WI, USA). Briefly, differentiated neuronal-PC12 cells were treated with H2O2 (300 μM) with or without reEPO and peptides for 24 h. The PC12 cells were washed with PBS; 20 ul MTS solution was added to each well with 100 μl PBS, and the cells were incubated for 3 h at 37°C and 5% CO2. The intracellular soluble formazan produced by cellular reduction of the MTS was determined by recording the absorbance at 490 nm using a microplate reader (VersaMax, Molecular Devices, USA). Cell proliferation was also evaluated by the MTS assay. Undifferentiated PC12 cells were seeded into a 96-well plate (5x10^4 cells/well). The next day, the initial cell number was counted; after 48 h, under low FBS concentration (0.5%), with or without reEPO and peptides, cell number was measured by the MTS assay.
The HT-22 cells were seeded onto 96-well or 6-well plates. […]

[3] = tested on: cleaved Caspase 3; assay: Immunoblot of cleaved Caspase 3 after hypoxia and re-oxygenation; format: cell-based, mouse; details: HT-22 cells; reEPO 0.5 IU/ml, ML1-h3 1 ng/ml; normalized by β-Actin; n = 6
Description: as §1
The HT-22 cells were seeded onto 96-well or 6-well plates. The next day, HT-22 cells were placed inside a sealed air-tight container consisting of an anaeropack (Mitsubishi Gas Company, Tokyo, Japan), which can induce a hypoxic atmosphere by absorbing oxygen and generating carbon dioxide. […]

[4] = tested on: mouse ischemic model; assay: Middle cerebral artery occlusion (MCAO) and reperfusion, TTC staining of brain; format: in vivo; details: MCAO 90 min, 24 h reperfusion, intravenous reEPO 2000 IU/kg (n = 4)
From the text: The protocol of this experiment was approved by the Animal Care and Use Committee of the Keimyung University School of Medicine. After 1 week of acclimatization, mice were anesthetized with 3% isoflurane in a mixture of 70% N2O and 30% O2, and the anesthesia was maintained with 1.5–2.0% isoflurane. After the neck skin incision, the bifurcation of the common carotid artery was exposed. The external carotid artery was ligated, and the internal carotid artery was carefully isolated from the vagus nerve. A microvascular clip was placed across the right common carotid artery. Through the external carotid stump, a 7–0 surgical nylon monofilament with silicon coat was advanced into the right internal carotid artery up to the origin of the middle cerebral artery. […] During the surgery, rectal temperature was monitored and maintained at 37 ± 0.5 °C with a feedback-controlled heating pad (CMA 150, Stockholm, Sweden). […]
The brain was rapidly dissected out and coronally sliced into 2-mm-thick sections. […] The infarct volumes of the TTC-stained brain sections were imaged with a digital camera and analyzed. Using NIH ImageJ software (NIH, USA), the intensity of TTC in MCAO- and no-MCAO-performed hemispheres were digitally measured, and the ratio (MCAO versus non-MCAO) was presented as a percentage.

[5] = tested on: male mice (C57BL/6 N); assay: Measurement of the hematopoietic effect after repeated subcutaneous injection; format: in vivo; details: mouse, three times a week for four weeks, reEPO 150 IU/kg, ML1-h3 0.2 mg/kg
Description: The protocol of this experiment was approved by the Animal Care and Use Committee of the DGIST (DGIST-IACUC-21090804-0000). After two weeks for quarantine and acclimatization, male mice (C57BL/6 N, Koatech, Korea) were subcutaneously injected with vehicle (n = 6), reEPO (n = 6, 150 IU/kg), or ML1-h3 (n = 6, 0.2 mg/kg) three times a week for four weeks. After three days of final injection, they were anesthetized by injection of zoletil (50 mg/kg), and their blood was gathered from posterior vena cava into an EDTA-coated tube (#367863, BD Vacutainer, USA) using a syringe. The blood samples were analyzed by an automatic hematology analyzer (#ADIVIA 2120i, SIEMENS Healthineers, Germany) in DGMIF (Korea).

For “reEPO: Recombinant human EPO (Epoetin-α, CJ HealthCare Corporation)”, the “Level of phosphorylated AKT (pAKT) over time” value [1] was “gradually reduced phosphorylated AKT”, the “Cell viability under H/R” value [2] was “suppressed the loss of cell viability” and the “Level of cleaved Caspase 3 under H/R” value [3] was “efficiently reduced the levels of Bax, cleaved Caspase 3”. The “TTC staining in MCAO-performed versus contralateral side (brain injury)” value [4] was “inhibited extinction of TTC-staining in MCAO-performed side”, the Body weight ([5]; n = 6) was “No significant difference” and the “Cell number of platelet” value ([5]; n = 6, versus vehicle) was “did not significantly affect”. For the same substance, the Content of haemoglobin ([5]; n = 6, versus vehicle) was “dramatically increased”, the Hematocrit level ([5]; n = 6, versus vehicle) was “dramatically increased” and the Number of erythrocytes ([5]; n = 6, versus vehicle) was “dramatically increased”. For the same substance, the “Number of granulocytes, including neutrophils and eosinophils” value ([5]; n = 6, versus vehicle) was “considerably decreased”, the Number of lymphocytes ([5]; n = 6, versus vehicle) was “did not significantly affect” and the Number of monocytes ([5]; n = 6, versus vehicle) was “did not significantly affect”. For the same substance, the Number of reticulocytes ([5]; n = 6, versus vehicle) was “dramatically increased” and the “Total number of white blood cells” value ([5]; n = 6, versus vehicle) was “did not significantly affect”.
